Measured values reported in patent publication US20240182536A1 (MURAL ONCOLOGY, published 2024).

T1: IL-18 receptors on HEK-Blue IL-18 reporter cells (InvivoGen) (UniProt Q13478 19-541; O95256 20-599)
T1 sequence (looked up) 1: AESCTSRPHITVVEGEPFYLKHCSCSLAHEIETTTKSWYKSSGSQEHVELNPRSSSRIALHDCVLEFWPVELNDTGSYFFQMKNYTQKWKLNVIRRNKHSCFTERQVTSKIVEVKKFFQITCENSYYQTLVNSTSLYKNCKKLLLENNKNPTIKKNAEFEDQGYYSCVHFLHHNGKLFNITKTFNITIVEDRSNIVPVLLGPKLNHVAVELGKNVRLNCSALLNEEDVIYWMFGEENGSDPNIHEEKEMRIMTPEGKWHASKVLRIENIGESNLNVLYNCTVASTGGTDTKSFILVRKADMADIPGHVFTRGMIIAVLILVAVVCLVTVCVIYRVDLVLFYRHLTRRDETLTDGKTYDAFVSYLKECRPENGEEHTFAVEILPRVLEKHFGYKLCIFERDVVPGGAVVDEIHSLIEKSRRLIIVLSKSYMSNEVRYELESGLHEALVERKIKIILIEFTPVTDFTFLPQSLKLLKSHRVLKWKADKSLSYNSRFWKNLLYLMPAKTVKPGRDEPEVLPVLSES
T1 sequence (looked up) 2: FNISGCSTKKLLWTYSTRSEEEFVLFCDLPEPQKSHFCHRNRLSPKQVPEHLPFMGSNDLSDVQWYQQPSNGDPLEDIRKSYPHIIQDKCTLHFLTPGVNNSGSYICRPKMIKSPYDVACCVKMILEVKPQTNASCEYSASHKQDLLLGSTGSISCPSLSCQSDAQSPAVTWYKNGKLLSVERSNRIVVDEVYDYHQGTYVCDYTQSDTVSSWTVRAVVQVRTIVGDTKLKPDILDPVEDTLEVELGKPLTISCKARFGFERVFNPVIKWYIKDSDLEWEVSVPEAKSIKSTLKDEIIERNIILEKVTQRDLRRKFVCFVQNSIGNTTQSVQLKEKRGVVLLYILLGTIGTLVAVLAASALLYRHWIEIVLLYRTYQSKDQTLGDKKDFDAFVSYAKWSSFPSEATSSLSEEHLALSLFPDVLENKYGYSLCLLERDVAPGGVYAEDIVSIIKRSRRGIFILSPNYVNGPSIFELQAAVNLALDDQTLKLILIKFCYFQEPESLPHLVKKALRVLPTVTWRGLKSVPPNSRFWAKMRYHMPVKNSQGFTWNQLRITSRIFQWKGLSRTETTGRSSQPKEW

T2: human IL-18 binding protein (IL-18BP) (human, UniProt O95998 31-194)
T2 sequence (looked up): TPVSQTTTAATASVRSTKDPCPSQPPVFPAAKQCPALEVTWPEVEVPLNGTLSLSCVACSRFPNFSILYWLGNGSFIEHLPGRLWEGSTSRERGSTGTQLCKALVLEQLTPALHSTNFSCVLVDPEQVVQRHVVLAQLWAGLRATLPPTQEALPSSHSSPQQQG


Experiments:
[1] = biological target: T1, IL-18 receptors on HEK-Blue IL-18 …; assay: cell-based or functional assay
[2] = biological target: T2, human IL-18 binding protein (IL-18BP); assay: cell-based or functional assay
[3] = biological target: T2, human IL-18 binding protein (IL-18BP); assay: Octet BLI
Experimental: Octet 96red instrument was used to determine affinities of IL18 proteins to BP or receptors. 5-10 ug/ml analyte proteins were used for loading on Sartorius tips (AHC or SA). […] 120-180 s loading, 200 s association and 800 s dissociation were used for kinetics. 3-7 data points were used to calculate affinities.
Select G3/K53-substitution containing IL-18 variants and select G3/K53/N91-substitution containing TL-18 variants were tested for activity in the HEK-blue activity assay and for binding affinity to IL-18BP. As shown in the data of Table 15 and Table 16 below, each variant had similar or better activity than WT IL-18, and retained substantial activity in the presence of IL-18BP.

| Binder | HEK-Blue Ec50 (pM), -IL-18BP [1] | HEK-Blue Ec50 (pM), +IL-18BP (50 nM) [2] | Kd [3] | koff [3] | kon [3] |
| --- | --- | --- | --- | --- | --- |
| IL-18 variant G3A, N91L, K53S (ligand) YFAKLESKLSVIRNLNDQVLFIDQGNRPLFEDMTDSDMRDNAPRTIFIISMYSDSQPRGMAVTISVKSEKISTLSSENKIISFKEMNPPDLIKDTKSDIIFFQRSVPGHDNKMQFESSSYEGYFLASEKERDLFKLILKKEDELGDRSIMFTVQNED | 0.71 pM | 5.82 pM | 4.8 nM | 0.00103 s⁻¹ | 216000 M⁻¹ s⁻¹ |
| IL-18 variant G3R, N91S, K53A (ligand) YFRKLESKLSVIRNLNDQVLFIDQGNRPLFEDMTDSDMRDNAPRTIFIISMYADSQPRGMAVTISVKSEKISTLSSENKIISFKEMNPPDSIKDTKSDIIFFQRSVPGHDNKMQFESSSYEGYFLASEKERDLFKLILKKEDELGDRSIMFTVQNED | 0.05 pM | 2.8 pM | 0.9 nM | 0.000162 s⁻¹ | 191000 M⁻¹ s⁻¹ |
| IL-18 variant G3K, N91I, K53S (ligand) YFKKLESKLSVIRNLNDQVLFIDQGNRPLFEDMTDSDMRDNAPRTIFIISMYSDSQPRGMAVTISVKSEKISTLSSENKIISFKEMNPPDIIKDTKSDIIFFQRSVPGHDNKMQFESSSYEGYFLASEKERDLFKLILKKEDELGDRSIMFTVQNED | 0.2 pM | 7.05 pM | 1.9 nM | 0.000406 s⁻¹ | 218000 M⁻¹ s⁻¹ |
| IL-18 variant G3R, N91A, K53S (ligand, also called G3R/K53S/N91A) YFRKLESKLSVIRNLNDQVLFIDQGNRPLFEDMTDSDMRDNAPRTIFIISMYSDSQPRGMAVTISVKSEKISTLSSENKIISFKEMNPPDAIKDTKSDIIFFQRSVPGHDNKMQFESSSYEGYFLASEKERDLFKLILKKEDELGDRSIMFTVQNED | 0.25 pM | 2.27 pM | 3.4 nM | 0.000728 s⁻¹ | 213000 M⁻¹ s⁻¹ |
| IL-18 variant G3R, N91M, K53A (ligand, also called G3R/K53A/N91M) YFRKLESKLSVIRNLNDQVLFIDQGNRPLFEDMTDSDMRDNAPRTIFIISMYADSQPRGMAVTISVKSEKISTLSSENKIISFKEMNPPDMIKDTKSDIIFFQRSVPGHDNKMQFESSSYEGYFLASEKERDLFKLILKKEDELGDRSIMFTVQNED | 0.06 pM | 1.67 pM | 1.5 nM | 0.00031 s⁻¹ | 208000 M⁻¹ s⁻¹ |
| IL-18 variant G3F, N91E, K53S (ligand, also called G3F/K53S/N91E) YFFKLESKLSVIRNLNDQVLFIDQGNRPLFEDMTDSDMRDNAPRTIFIISMYSDSQPRGMAVTISVKSEKISTLSSENKIISFKEMNPPDEIKDTKSDIIFFQRSVPGHDNKMQFESSSYEGYFLASEKERDLFKLILKKEDELGDRSIMFTVQNED | 2.55 pM | 10.7 pM | 9.1 nM | 0.00195 s⁻¹ | 213000 M⁻¹ s⁻¹ |
